The values below are quoted from earlier work in article PMC7876049.

Broadly, the Kd is a measure of binding affinity in units of concentration.

In the data set the target is CYK4 (Homo sapiens) (UniProt Q9H0H5).
UniProt Q9H0H5, sequence (Q9H0H5 whole entry): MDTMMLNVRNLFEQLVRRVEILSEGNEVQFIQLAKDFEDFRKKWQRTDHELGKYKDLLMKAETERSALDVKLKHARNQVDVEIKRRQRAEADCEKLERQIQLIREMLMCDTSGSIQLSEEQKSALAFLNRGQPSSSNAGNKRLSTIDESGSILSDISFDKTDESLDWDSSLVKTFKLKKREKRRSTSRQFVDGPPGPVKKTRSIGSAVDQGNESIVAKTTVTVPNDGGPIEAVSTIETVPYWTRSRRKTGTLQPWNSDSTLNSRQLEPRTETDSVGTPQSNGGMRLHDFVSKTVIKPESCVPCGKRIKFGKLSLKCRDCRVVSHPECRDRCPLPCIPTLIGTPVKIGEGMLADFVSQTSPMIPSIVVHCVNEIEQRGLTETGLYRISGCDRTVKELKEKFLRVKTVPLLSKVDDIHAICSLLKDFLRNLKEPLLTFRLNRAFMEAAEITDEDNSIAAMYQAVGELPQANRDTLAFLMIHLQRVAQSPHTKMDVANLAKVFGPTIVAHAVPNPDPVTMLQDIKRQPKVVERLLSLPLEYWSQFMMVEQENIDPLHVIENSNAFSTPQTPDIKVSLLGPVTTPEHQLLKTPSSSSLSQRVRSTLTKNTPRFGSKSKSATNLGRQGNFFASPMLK

With MKLP1 (from UniProt Q02241), the Kd is 7 nM.
